US20220293215A1
Where two headings read alike, the source gives them in different places.

What was measured:
[1] = target: T1, I-A^b (MHCII) of murine bone marrow-derived dendritic cells from C57BL/6J mice (mouse), P14434; experiment: MHCII peptidomics: Y3P IP of peptide-MHCII from BMDCs exposed to live Listeria, iTRAQ LC-MS/MS; settings: scale: log2 fold change, Listeria 6 hr versus 10 min
T1 chain 1: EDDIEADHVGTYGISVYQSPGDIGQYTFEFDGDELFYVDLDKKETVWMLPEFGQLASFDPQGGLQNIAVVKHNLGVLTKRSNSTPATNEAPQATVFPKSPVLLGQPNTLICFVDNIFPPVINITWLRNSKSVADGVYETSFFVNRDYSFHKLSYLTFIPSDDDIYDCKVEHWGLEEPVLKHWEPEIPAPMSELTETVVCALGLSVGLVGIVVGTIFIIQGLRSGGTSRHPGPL
T1 chain 2: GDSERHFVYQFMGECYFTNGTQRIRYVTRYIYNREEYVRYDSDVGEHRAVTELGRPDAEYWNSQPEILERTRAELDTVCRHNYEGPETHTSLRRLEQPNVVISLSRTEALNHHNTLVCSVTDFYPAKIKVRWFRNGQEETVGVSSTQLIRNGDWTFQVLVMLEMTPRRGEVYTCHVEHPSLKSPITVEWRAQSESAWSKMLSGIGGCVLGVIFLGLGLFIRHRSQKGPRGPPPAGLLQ

[2] = target: T1, I-A^b (MHCII) of murine bone …; settings: scale: log2 fold change, Listeria 6 hr versus 10 min

Binder	logFC [1]	logFC [2]
ERWNEKYAQAYPNVS (modifications not checked)	0.207	–
VERWNEKYAQAYPNVS (modifications not checked)	0.285	–
WNEKYAQAYPNVSAKI (modifications not checked)	1.2	–
WNEKYAQAYPNVS (modifications not checked)	1.38	–
ESVYLSAQKENPRLFAKIETF (modifications not checked) [Listeria peptide …n… (lmo1574 (dnaE))]	–	0.595
